How the values were obtained:
[1] = tested on: Akt; experiment: Akt phosphorylation in liver of mice injected with insulin (immunoblot); assay type: in vivo, mouse
Method: (§1) FIG. 4A, Activation of PI3K by insulin in livers of βarr2-ko mice (n=6), βarr2-tg mice (n=6) and their wild type littermates (n=6). Mice were injected with either saline or insulin (1 U·kg^−1) for 10 min. PI3K were immuno-purified from liver extracts and PI3K activity were measured by ELISA. Data are presented as mean ±s.e.m. *P<0.05, **P<0.005, versus control. FIG. 4B, FIG. 4C, Activation of Akt and downstream targets by insulin in livers of βarr2-ko mice (n=6) (FIG. 4B), βarr2-tg mice (n=6) (FIG. 4C) and their wild type littermates (n=6). Liver protein extracts prepared as in A were used for immunoblot analysis of pAkt, pFoxol, and pGSK3. […] FIG. 4E, Src-dependent activation of Akt. Hep3B hepatocytes were treated with or without 10 μM Src inhibitor PP2 or 100 nM PI3K inhibitor Wortmanin for 30 min, and then stimulated by 100 nM insulin. Phosphorylation levels of Akt at serine/threonine or tyrosine (n=6) were shown. […]
(§2) After mouse is sacrificed, mouse tissues are quickly excised and frozen in liquid nitrogen. Tissue lysate is prepared and protein concentration is determined by Bradford method. […] For immunoblotting, protein bands, emitting infrared fluorescence through excitation of IRDye800CW conjugated secondary antibody, are obtained by Odyssey infrared imaging system, followed by using Scion Image software (Li-Cor Bioscience, Lincoln, Nebr., USA) to perform quantitative analysis. […]

[2] = tested on: wild type littermates and βarr2-ko mice; experiment: Insulin tolerance tests (ITTs); assay type: in vivo, mouse; conditions: intraperitoneal 1 U·kg^−1 insulin
Method: (§3) For GTTs, mice are injected intraperitoneal with glucose after starvation for 6 hours. Blood glucose is measure at indicated time points. Mice are injected intraperitoneally under fed conditions for ITTs. Blood are collected and determined the glycemia using a glucometer (Roche Accu-chek). Serum insulin levels are measured using rat/mouse ELISA kit.

[3] = tested on: PI3K; experiment: PI3K activity (ELISA) in liver of mice injected with insulin; assay type: in vivo, mouse; conditions: insulin 1 U·kg^−1 for 10 min; wild type, βarr2-ko and βarr2-tg mice
Method: as §1, with “shown. FIG. 4F, Tyrosine phosphorylation of Akt induced by insulin in livers of βarr2-ko mice (n=6), βarr2-tg mice (n=6) and their wild type littermates (n=6). Akt immuno-purified from protein extracts made in FIG. 4B and FIG. 4C was subjected to immunoblot using antibodies against phosphorylated tyrosine. All mice were 8-weeks old fed with a regular diet. Data are presented as mean ±s.e.m. *P<0.05, **P<0.005, versus control.” for “shown.”

[4] = tested on: Akt/βarrestin2/Src complex; experiment: Akt/βarrestin2/Src complex formation in liver of C57BL/6 mice injected with insulin (immunoprecipitation); assay type: in vivo, mouse; conditions: C57BL/6 mice livers, intraperitoneal insulin 1 U·kg^−1, time-dependent
Method: (§4) C57BL/6 mice (n=6) were injected with 1 U·kg^−1 insulin for the indicated times, and liver protein extracts were prepared for immunoprecipitation using anti-Akt antibodies. […] Liver protein extracts prepared as described in a were subjected to immunoprecipitation for IRβ. […] Liver protein extracts prepared from βarr2-ko (n=6), βarr2-tg (n=6), their wild type littermates (n=6) as described were subjected to immunoprecipitation for IRβ. Akt and Src associated with IRβ were detected on immunoblots. […] Hep3B hepatocytes overexpressing HA-βarrestin2 186-409 or βGal were subjected for immunoblot analysis of pAkt, pFoxol, and pGSK3. All mice were 8-weeks old fed with a regular diet.
as §2, with “method. For immunoprecipitation, add relevant antibodies to cell lysate, incubate at 4° C. overnight, add protein A or protein G agarose beads, incubate at 4° C. for 2 h.” for “method.”

[5] = tested on: Akt; experiment: Insulin-stimulated Akt phosphorylation in Hep3B hepatocytes treated with inhibitors (immunoblot); assay type: cell-based, human; conditions: 10 μM PP2 or 100 nM Wortmannin for 30 min, then 100 nM insulin
Method: as §1, §2

[6] = tested on: Akt; experiment: Co-immunoprecipitation of βarrestin2 truncation mutants with Akt in Hep3B hepatocytes; assay type: binding, human; conditions: HA-tagged mutant
Excerpt: (§5) FIG. 5B, Interaction of Akt and Src in liver of wild type littermates but not βarr2-ko mice. Liver protein extracts from βarr2-ko mice (n=6) and their wild type littermates (n=6) were used for immunoprecipitation by anti-Akt or anti-Src antibodies. FIG. 5C, Enhanced interaction of Akt and Src in liver of βarr2-tg mice. Liver protein extracts from βarr2-tg mice (n=6) and their wild type littermates (n=6) were used for immunoprecipitation by anti-Akt or anti-Src antibodies. […] HA-βarrestin2 that co-immunoprecipitated from Hep3B hepatocytes overexpressing Akt or Src without or with HA-βarrestin2, HA-βarrestin2 1-185 was shown on immunoblots using anti-HA antibodies (n=3). […]
(§6) C57BL/6 mice (n=6) were injected with 1 U·kg^−1 insulin for the indicated times, and liver protein extracts were prepared for immunoprecipitation using anti-Akt antibodies. […] Akt and Src associated with IRβ were detected on immunoblots. […]
as §2

[7] = tested on: db/db diabetic mice; experiment: Adenovirus injection into db/db diabetic mice (blood glucose, GTTs, ITTs, body weight, food intake, liver βarrestin2); assay type: in vivo, mouse; conditions: adenovirus encoding mutant, vs βGal
Method: (§7) βarr1-ko and βarr2-ko mice are provided by Dr. Robert J. Lefkowitz (Duke University Medical Center, Durham, N.C.). βarr1-tg and βarr2-tg mice are generated as described (Shi, Y., et al., “Critical regulation of CD4+ T cell survival and autoimmunity by beta-arrestin 1,” Nature Immunol., 8, 817-24 (2007)). All other mice are from Shanghai Laboratory Animal Center, Chinese Academy of Sciences. Animal experiments are performed in accordance with the National Institutes of Heath Guide for the Care and Use of Laboratory Animals. Mice are fed with a regular diet (Formulab 5008, Labdiet 5053) or high-fat diet (55% fat calories) (Harlan-Teklad 93075) and have free access to water and diet. Adenovirus (7×10^9 viral particle/100 μl saline) is injected into the tail vein of db/db mice and C57BL/6 to specifically target the liver. Body weight and food intake are measured as described in: Netea, M. G., et al., “Deficiency of interleukin-18 in mice leads to hyperphagia, obesity and insulin resistance,” Nature Medicine, 12, 650-6 (2006).
as §3, with “kit. […]” for “kit.”

[8] = tested on: C57BL/6 mice; experiment: Adenovirus encoding βarrestin2 mutants injected into C57BL/6 mice (blood glucose, GTTs, ITTs); assay type: in vivo, mouse; conditions: for insulin tolerance in ITTs: 1 U·kg^−1, 7 days after adenovirus injection; for glucose tolerance in GTTs: 1 g·kg^−1, 7 days after adenovirus injection; for blood glucose levels: adenovirus, all time points, vs control mice
Excerpt: C57BL/6 mice were 8 -weeks old fed on regular diet (RD). Data are presented as mean ±s.e.m. *P<0.05, **P<0.005, versus control.
as §7, §3
The CsCl purified adenovirus are used as a saline solution (7×10^9 virus particles per […]) and injected through tail vein.

[9] = tested on: Akt; experiment: Insulin-stimulated pAkt, pFoxo1, pGSK3 in Hep3B hepatocytes overexpressing βarrestin2 mutants (immunoblot); assay type: cell-based, human; conditions: overexpressed in Hep3B hepatocytes, vs βGal
Excerpt: FIG. 5B, Interaction of Akt and Src in liver of wild type littermates but not βarr2-ko mice. Liver protein extracts from βarr2-ko mice (n=6) and their wild type littermates (n=6) were used for immunoprecipitation by anti-Akt or anti-Src antibodies. FIG. 5C, Enhanced interaction of Akt and Src in liver of βarr2-tg mice. Liver protein extracts from βarr2-tg mice (n=6) and their wild type littermates (n=6) were used for immunoprecipitation by anti-Akt or anti-Src antibodies. […] HA-βarrestin2 that co-immunoprecipitated from Hep3B hepatocytes overexpressing Akt or Src without or with HA-βarrestin2, HA-βarrestin2 1-185 was shown on immunoblots using anti-HA antibodies (n=3). FIG. 5F, Hep3B hepatocytes overexpressing HA-βarrestin2 1-185 or βGal were subjected to immunoprecipitation using anti-Akt antibodies. Akt, Src in the immunopurified complex were shown on immunoblots (n=3). […] Hep3B hepatocytes overexpressing HA-βarrestin2 1-185 or βGal were stimulated by insulin and then subjected to immunoblot analysis of pAkt, pFoxol, and pGSK3. All mice were 8-weeks old fed with a regular diet.
as §4
(§8) After mouse is sacrificed, mouse tissues are quickly excised and frozen in liquid nitrogen. Tissue lysate is prepared and protein concentration is determined by Bradford method. For immunoprecipitation, add relevant antibodies to cell lysate, incubate at 4° C. overnight, add protein A or protein G agarose beads, incubate at 4° C. for 2 h. Proteins that bind protein A or protein G agarose beads are washed in SDS sample buffer and treated at 50° C. for 20 min followed by SDS-PAGE separation and through immunoblotting method to determine relevant proteins. For immunoblotting, protein bands, emitting infrared fluorescence through excitation of IRDye800CW conjugated secondary antibody, are obtained by Odyssey infrared imaging system, followed by using Scion Image software (Li-Cor Bioscience, Lincoln, Nebr., USA) to perform quantitative analysis. […]

[10] = target: T1, Src (Homo sapiens, UniProt P12931); experiment: Co-immunoprecipitation of βarrestin2 truncation mutants with Src in Hep3B hepatocytes; assay type: binding; conditions: HA-tagged mutant
T1 construct: Full length of Akt and Src are cloned into modified pcDNA3 vector in-frame with HA or Flag at the N-terminus; expressed in transfected cells; host or cells: Hep3B
Excerpt: as §5, §6, §2

[11] = tested on: Akt/Src complex; experiment: Akt/Src interaction in Hep3B hepatocytes overexpressing βarrestin2 mutant (anti-Akt immunoprecipitation); assay type: cell-based, human; conditions: overexpressed in Hep3B hepatocytes, vs βGal
Excerpt: as §5, with “(n=3). FIG. 5F, Hep3B hepatocytes overexpressing HA-βarrestin2 1-185 or βGal were subjected to immunoprecipitation using anti-Akt antibodies. Akt, Src in the immunopurified complex were shown on immunoblots (n=3).” for “(n=3).”
as §2

[12] = target: T2, IRβ (Homo sapiens, UniProt P06213); experiment: Co-immunoprecipitation of βarrestin2 truncation mutants with IRβ in Hep3B hepatocytes; assay type: binding; conditions: HA-tagged mutant
T2 construct: IR immunoprecipitated from Hep3B hepatocytes; endogenous in cells; host or cells: Hep3B
Method: as §4
as §8, with “Proteins that bind protein A or protein G agarose beads are washed in SDS sample buffer and treated at 50° C. for 20 min followed by SDS-PAGE separation and through immunoblotting method to determine relevant proteins.” left out

Molecule | interaction with Akt [6] | insulin resistance [7] | insulin tolerance in ITTs [8] | glucose tolerance in GTTs [8] | blood glucose levels [8] | insulin-stimulated phosphorylation (activation) of Akt [9] | interaction with Src [10] | further results
insulin: insulin injected into mice or added to cells as stimulus | – | – | – | – | – | – | – | increase in tyrosine phosphorylation of Akt ([1]; liver of wild type mice, insulin stimulation): ~2 fold; increase in the phosphorylation of Akt at Thr308 or Ser473 in liver ([1]; wild type mice, insulin 1 U·kg^−1 for 10 min): ~3 fold; blood glucose in ITTs [2]: time-dependent reduction; increase in PI3K activity in liver [3]: ~3 fold; Akt/Src interactions [4]: marked increase; Akt/βarrestin2 association [4]: marked increase
CC(C)(C)n1nc(-c2ccc(Cl)cc2)c2c(N)ncnc21 [PP2] | – | – | – | – | – | – | – | serine/threonine phosphorylation of Akt [5]: remarkably reduced; tyrosine phosphorylation of Akt [5]: remarkably reduced
βarrestin2 1-185: truncated form of βarrestin2 containing amino acids 1-185, dominant negative mutant; overexpressed in Hep3B or delivered by adenovirus (protein, left off: small tags and cut ends, overexpressed in Hep3B or delivered by adenovirus) MGEKPGTRVFKKSSPNCKLTVYLGKRDFVDHLDKVDPVDGVVLVDPDYLKDRKVFVTLTCAFRYGREDLDVLGLSFRKDLFIATYQAFPPVPNPPRPPTRLQDRLLRKLGQHAHPFFFTIPQNLPCSVTLQPGPEDTGKACGVDFEIRAFCAKSLEEKSHKRNSVRLVIRKVQFAPEKPGPQPSA | not Akt | aggravates | impair | impair | higher | markedly reduced | interacts with Src | insulin-stimulated phosphorylation of Foxo1 [9]: markedly reduced; insulin-stimulated phosphorylation of GSK3 [9]: markedly reduced; Akt/Src interactions [11]: inhibits
βarrestin2 186-409: truncated mutant of βarrestin2 that interacts with IR but not Akt or Src; overexpressed in Hep3B or delivered by adenovirus (protein, left off: small tags and cut ends, overexpressed in Hep3B or delivered by adenovirus) ETTRHFLMSDRSLHLEASLDKELYYHGEPLNVNVHVTNNSTKTVKKIKVSVRQYADICLFSTAQYKCPVAQLEQDDQVSPSSTFCKVYTITPLLSDNREKRGLALDGKLKHEDTNLASSTIVKEGANKEVLGILVSYRVKVKLVVSRGGDVSVELPFVLMHPKPHDHIPLPRPQSAAPETDVPVDTNLIEFDTNYATDDDIVFEDFARLRLKGMKDDDYDDQLC | not Akt or Src | aggravates | impair | impair | higher | suppresses | not Akt or Src | interaction with IRβ [12]: interacts with IRβ

— patent US8536121B2, “Methods and reagents for the diagnosis, prevention and treatment of insulin resistance using beta-arrestin2 and its up-regulators” (Shanghai Institutes for Biological Sciences, CAS, priority 2008, dated 2013)
